Our source for the stoichiometry N values is article doi:10.1101/2023.05.30.542953.

The target in the assay is Lactobacillus helveticus chlorogenic acid esterase (LhCE), wild type (Lactobacillus helveticus). Kind of assay: crystal structure.

For the substance “Lactobacillus helveticus chlorogenic acid esterase (LhCE), wild type (enzyme)”, the stoichiometry N is 2.
